Data reported in IntAct's records for PubMed 19415803.

B1: DNA polymerase III subunit tau (Bacillus subtilis), P09122 (parent)
chain: MSYQALYRVFRPQRFEDVVGQEHITKTLQNALLQKKFSHAYLFSGPRGTGKTSAAKIFAKAVNCEHAPVDEPCNECAACKGITNGSISDVIEIDAASNNGVDEIRDIRDKVKFAPSAVTYKVYIIDEVHMLSIGAFNALLKTLEEPPEHCIFILATTEPHKIPLTIISRCQRFDFKRITSQAIVGRMNKIVDAEQLQVEEGSLEIIASAADGGMRDALSLLDQAISFSGDILKVEDALLITGAVSQLYIGKLAKSLHDKNVSDALETLNELLQQGKDPAKLIEDMIFYFRDMLLYKTAPGLEGVLEKVKVDETFRELSEQIPAQALYEMIDILNKSHQEMKWTNHPRIFFEVAVVKICQTSHQSAADLPEVDMLMKKIQQLEQEVERLKTTGIKAAAESPKKEAPRVPKGGKSNYKAPVGRIHEILKEATRPDLDLLRNSWGKLLAHLKQQNKVSHAALLNDSEPVAAGSAAFVLKFKYEIHCKMVAEDNNGVRTNLEQILESMLGKRMDLIGVPEAQWGKIREEFLEDHQQENEGSNEPAEEDPLIAEAKKLVGADLIEIKD
partner: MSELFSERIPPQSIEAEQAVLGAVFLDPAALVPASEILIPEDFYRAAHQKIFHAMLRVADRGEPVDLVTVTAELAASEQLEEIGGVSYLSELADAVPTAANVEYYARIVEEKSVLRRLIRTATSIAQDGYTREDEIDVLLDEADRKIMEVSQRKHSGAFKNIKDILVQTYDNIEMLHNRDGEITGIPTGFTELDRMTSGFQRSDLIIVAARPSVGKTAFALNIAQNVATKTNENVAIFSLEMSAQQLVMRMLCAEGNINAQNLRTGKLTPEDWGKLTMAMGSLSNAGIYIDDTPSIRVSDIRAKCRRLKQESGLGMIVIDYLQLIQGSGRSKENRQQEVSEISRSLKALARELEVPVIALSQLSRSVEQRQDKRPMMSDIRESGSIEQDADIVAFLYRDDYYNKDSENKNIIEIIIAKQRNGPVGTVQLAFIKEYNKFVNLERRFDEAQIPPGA

Variants of: B1
Conditions: with dnab_geose dnaB

Variant	effect of a mutation on the interaction
MSYQALYRVFRPQRFEDVVGQEHITKTLQNALLQKKFSHAYLFSGPRGTGKTSAAKIFAKAVNCEHAPVDEPCNECAACKGITNGSISDVIEIDAASNNGVDEIRDIRDKVKFAPSAVTYKVYIIDEVHMLSIGAFNALLKTLEEPPEHCIFILATTEPHKIPLTIISRCQRFDFKRITSQAIVGRMNKIVDAEQLQVEEGSLEIIASAADGGMRDALSLLDQAISFSGDILKVEDALLITGAVSQLYIGKLAKSLHDKNVSDALETLNELLQQGKDPAKLIEDMIFYFRDMLLYKTAPGLEGVLEKVKVDETFRELSEQIPAQALYEMIDILNKSHQEMKWTNHPRIFFEVAVVKICQTSHQSAADLPEVDMLMKKIQQLEQEVERLKTTGIKAAAESPKKEAPRVPKGGKSNYKAPVGRIHEILKEATRPDLDLLRNSWGKLLAHLKQQNKVSHAALLNDSEPVAAGSAAFVLKFKYEIHCKMVAEDNNGVRTNLEQILESMLGKRMSLIGVPEAQWGKIREEFLEDHQQENEGSNEPAEEDPLIAEAKKLVGADLIEIKD [D510S]	decreasing interaction strength
MSYQALYRVFRPQRFEDVVGQEHITKTLQNALLQKKFSHAYLFSGPRGTGKTSAAKIFAKAVNCEHAPVDEPCNECAACKGITNGSISDVIEIDAASNNGVDEIRDIRDKVKFAPSAVTYKVYIIDEVHMLSIGAFNALLKTLEEPPEHCIFILATTEPHKIPLTIISRCQRFDFKRITSQAIVGRMNKIVDAEQLQVEEGSLEIIASAADGGMRDALSLLDQAISFSGDILKVEDALLITGAVSQLYIGKLAKSLHDKNVSDALETLNELLQQGKDPAKLIEDMIFYFRDMLLYKTAPGLEGVLEKVKVDETFRELSEQIPAQALYEMIDILNKSHQEMKWTNHPRIFFEVAVVKICQTSHQSAADLPEVDMLMKKIQQLEQEVERLKTTGIKAAAESPKKEAPRVPKGGKSNYKAPVGRIHEILKEATRPDLDLLRNSWGKLLAHLKQQNKVSHAALLNDSEPVAAGSAAFVLKFKYEIHCKMVAEDNNRVRTNLEQILESMLGKRMDLIGVPEAQWGKIREEFLEDHQQENEGSNEPAEEDPLIAEAKKLVGADLIEIKD [G492R]	decreasing interaction strength
MSYQALYRVFRPQRFEDVVGQEHITKTLQNALLQKKFSHAYLFSGPRGTGKTSAAKIFAKAVNCEHAPVDEPCNECAACKGITNGSISDVIEIDAASNNGVDEIRDIRDKVKFAPSAVTYKVYIIDEVHMLSIGAFNALLKTLEEPPEHCIFILATTEPHKIPLTIISRCQRFDFKRITSQAIVGRMNKIVDAEQLQVEEGSLEIIASAADGGMRDALSLLDQAISFSGDILKVEDALLITGAVSQLYIGKLAKSLHDKNVSDALETLNELLQQGKDPAKLIEDMIFYFRDMLLYKTAPGLEGVLEKVKVDETFRELSEQIPAQALYEMIDILNKSHQEMKWTNHPRIFFEVAVVKICQTSHQSAADLPEVDMLMKKIQQLEQEVERLKTTGIKAAAESPKKEAPRVPKGGKSNYKAPVGRIHEILKEATRPDLDLLRNSWGKLLAHLKQQNKVSHAALLNDSEPVAAGSAALVLKFKYEIHCKMVAEDNNGVRTNLEQILESMLGKRMDLIGVPEAQWGKIREEFLEDHQQENEGSNEPAEEDPLIAEAKKLVGADLIEIKD [F473L]	decreasing interaction strength
MSYQALYRVFRPQRFEDVVGQEHITKTLQNALLQKKFSHAYLFSGPRGTGKTSAAKIFAKAVNCEHAPVDEPCNECAACKGITNGSISDVIEIDAASNNGVDEIRDIRDKVKFAPSAVTYKVYIIDEVHMLSIGAFNALLKTLEEPPEHCIFILATTEPHKIPLTIISRCQRFDFKRITSQAIVGRMNKIVDAEQLQVEEGSLEIIASAADGGMRDALSLLDQAISFSGDILKVEDALLITGAVSQLYIGKLAKSLHDKNVSDALETLNELLQQGKDPAKLIEDMIFYFRDMLLYKTAPGLEGVLEKVKVDETFRELSEQIPAQALYEMIDILNKSHQEMKWTNHPRIFFEVAVVKICQTSHQSAADLPEVDMLMKKIQQLEQEVERLKTTGIKAAAESPKKEAPRVPKGGKSNYKAPVGRIHEILKEATRPDLDLLRNSWGKLLAHLKQQNKVSHAALLNDSEPVAAGSAAFVLKFKYEIHSKMVAEDNNGVRTNLEQILESMLGKRMDLIGVPEAQWGKIREEFLEDHQQENEGSNEPAEEDPLIAEAKKLVGADLIEIKD [C483S]	decreasing interaction strength

More lines, now with the values ahead:

effect of a mutation on the interaction	Variant
decreasing interaction strength	MSYQALYRVFRPQRFEDVVGQEHITKTLQNALLQKKFSHAYLFSGPRGTGKTSAAKIFAKAVNCEHAPVDEPCNECAACKGITNGSISDVIEIDAASNNGVDEIRDIRDKVKFAPSAVTYKVYIIDEVHMLSIGAFNALLKTLEEPPEHCIFILATTEPHKIPLTIISRCQRFDFKRITSQAIVGRMNKIVDAEQLQVEEGSLEIIASAADGGMRDALSLLDQAISFSGDILKVEDALLITGAVSQLYIGKLAKSLHDKNVSDALETLNELLQQGKDPAKLIEDMIFYFRDMLLYKTAPGLEGVLEKVKVDETFRELSEQIPAQALYEMIDILNKSHQEMKWTNHPRIFFEVAVVKICQTSHQSAADLPEVDMLMKKIQQLEQEVERLKTTGIKAAAESPKKEAPRVPKGGKSNYKAPVGRIHEILKEATRPDLDLLRNSWGKLLAHLKQQNKVSHAALLNDSEPVAAGSAAFVLKFKYEIHCKMVAEDNNGVRTNLEQILESMLGKRMDLIGVPEAQRGKIREEFLEDHQQENEGSNEPAEEDPLIAEAKKLVGADLIEIKD [W519R]
decreasing interaction strength	MSYQALYRVFRPQRFEDVVGQEHITKTLQNALLQKKFSHAYLFSGPRGTGKTSAAKIFAKAVNCEHAPVDEPCNECAACKGITNGSISDVIEIDAASNNGVDEIRDIRDKVKFAPSAVTYKVYIIDEVHMLSIGAFNALLKTLEEPPEHCIFILATTEPHKIPLTIISRCQRFDFKRITSQAIVGRMNKIVDAEQLQVEEGSLEIIASAADGGMRDALSLLDQAISFSGDILKVEDALLITGAVSQLYIGKLAKSLHDKNVSDALETLNELLQQGKDPAKLIEDMIFYFRDMLLYKTAPGLEGVLEKVKVDETFRELSEQIPAQALYEMIDILNKSHQEMKWTNHPRIFFEVAVVKICQTSHQSAADLPEVDMLMKKIQQLEQEVERLKTTGIKAAAESPKKEAPRVPKGGKSNYKAPVGRIHEILKEATRPDLDLLRNSWGKLLAHLKQQNKVSHAALLNDSEPVAAGSAAFVLKFKYEIHCKMVAEDNNGVRTNLEQILESMLGKRMDLIGVPEAQWGKIREEFLEDHQQENEGSNEPAEEDPLIAEVKKLVGADLIEIKD [A550V]
